This note sets out measurements from paper PMC4628001, “Hybrid PET/optical imaging of integrin αVβ3 receptor expression using a ^64Cu-labeled streptavidin/biotin-based dimeric RGD peptide” (EJNMMI Research, 2015).

One may read the IC50 as the concentration that gives 50% inhibition.

The target of this experiment is T1, integrin αVβ3 (Homo sapiens, UniProt P05106+P06756).
T1 construct: U87MG cells, which are known to express high levels of integrin αVβ3; endogenous in cells; host or cells: U87MG cells
The experiment can be described thus: Cell integrin receptor binding, U87MG cells, ^125I-RGDyK radioligand. Particulars: displacement of ^125I-RGDyK, room temperature 1 h, pH 7.4 binding buffer, n = 3. The method, then: The integrin αVβ3 receptor binding study was performed using a previously reported procedure with a slight modification. ^125I-RGDyK was used as the radioligand and prepared immediately before use. […] All experiments were performed in triplicate. IC50 values were determined using GraphPad Prism software 5.

T1 sequence (P06756 31-889 limits assumed): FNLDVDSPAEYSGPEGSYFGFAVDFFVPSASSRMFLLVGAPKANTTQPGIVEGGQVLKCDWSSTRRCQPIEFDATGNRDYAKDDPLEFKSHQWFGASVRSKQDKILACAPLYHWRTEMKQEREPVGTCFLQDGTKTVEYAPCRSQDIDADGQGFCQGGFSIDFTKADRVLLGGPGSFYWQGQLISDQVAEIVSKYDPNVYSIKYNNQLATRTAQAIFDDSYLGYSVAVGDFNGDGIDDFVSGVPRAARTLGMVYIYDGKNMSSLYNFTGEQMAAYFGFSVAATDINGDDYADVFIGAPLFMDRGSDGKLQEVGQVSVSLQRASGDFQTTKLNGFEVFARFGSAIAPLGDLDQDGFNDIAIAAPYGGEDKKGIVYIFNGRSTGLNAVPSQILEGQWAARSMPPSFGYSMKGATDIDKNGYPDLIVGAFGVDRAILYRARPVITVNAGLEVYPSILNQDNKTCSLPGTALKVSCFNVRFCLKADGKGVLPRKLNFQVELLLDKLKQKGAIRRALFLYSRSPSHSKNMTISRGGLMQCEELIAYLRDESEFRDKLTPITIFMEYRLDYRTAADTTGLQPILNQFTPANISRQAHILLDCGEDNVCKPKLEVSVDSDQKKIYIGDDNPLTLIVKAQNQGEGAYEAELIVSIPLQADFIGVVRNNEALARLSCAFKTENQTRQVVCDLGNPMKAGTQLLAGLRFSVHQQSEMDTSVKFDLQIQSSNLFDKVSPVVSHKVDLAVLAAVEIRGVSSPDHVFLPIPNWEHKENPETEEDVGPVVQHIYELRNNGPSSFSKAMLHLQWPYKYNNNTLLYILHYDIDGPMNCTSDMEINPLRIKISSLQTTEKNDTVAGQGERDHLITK
T1 sequence (P06756 891-1048 partner limits assumed): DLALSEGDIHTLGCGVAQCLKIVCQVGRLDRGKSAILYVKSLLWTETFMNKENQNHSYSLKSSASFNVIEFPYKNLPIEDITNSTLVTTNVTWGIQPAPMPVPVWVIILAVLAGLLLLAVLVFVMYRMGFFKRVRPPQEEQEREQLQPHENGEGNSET
T1 sequence (P05106 27-788): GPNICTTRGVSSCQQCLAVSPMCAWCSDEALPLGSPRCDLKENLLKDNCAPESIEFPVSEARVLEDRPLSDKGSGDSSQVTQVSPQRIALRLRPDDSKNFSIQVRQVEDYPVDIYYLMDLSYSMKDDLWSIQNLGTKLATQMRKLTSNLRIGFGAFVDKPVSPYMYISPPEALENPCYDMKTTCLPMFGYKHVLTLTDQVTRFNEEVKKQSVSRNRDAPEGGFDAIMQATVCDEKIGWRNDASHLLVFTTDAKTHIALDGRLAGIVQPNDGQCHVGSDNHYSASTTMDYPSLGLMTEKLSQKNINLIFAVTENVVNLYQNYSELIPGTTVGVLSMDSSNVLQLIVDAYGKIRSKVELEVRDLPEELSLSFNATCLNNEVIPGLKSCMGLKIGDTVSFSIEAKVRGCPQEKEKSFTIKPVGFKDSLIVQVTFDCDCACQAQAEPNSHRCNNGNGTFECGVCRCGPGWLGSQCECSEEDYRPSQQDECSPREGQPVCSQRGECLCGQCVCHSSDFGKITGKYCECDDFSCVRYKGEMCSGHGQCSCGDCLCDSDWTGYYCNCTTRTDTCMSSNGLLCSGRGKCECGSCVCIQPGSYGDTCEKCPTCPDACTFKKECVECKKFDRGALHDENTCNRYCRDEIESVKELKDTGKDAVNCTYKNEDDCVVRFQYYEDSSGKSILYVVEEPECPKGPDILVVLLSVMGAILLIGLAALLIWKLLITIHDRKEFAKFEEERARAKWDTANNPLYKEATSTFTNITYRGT

Regarding “DOTA-(AF)SAv/biotin-PEG-RGD2: unlabeled complex comprising DOTA-(AF)SAv and biotin-PEG-RGD2”, the concentration for half-maximal inhibition (IC50) is 12.1 ± 4.2 nM.
